PMC3267046

Substrate: O=[N+]([O-])c1cn2c(n1)OC[C@@H](OCc1ccc(OC(F)(F)F)cc1)C2
Assay: purified protein
Type: biochemical, Nocardia farcinica

B1: (Nocardia farcinica IFM 10152) (protein)
chain: MRMSSTGEYVPSPSEWIGNQVAQYEASDGAEAGEFDGRPLVILTTVGRKTGALRKTPVMRVEHDGRYAVVASQGGAPTHPAWYFNLVADPRAQLRDKDAVLSVVARELAGPERAEWWERAVRAYPTYQEYQDNTRRLIPVLLLEPGR
**Q.** How did the Km turn out when B1 was run?
**A.** 21.9 µM

**Q.** What about the kcat of the same protein?
**A.** 0.33 ± 0.08 s⁻¹

**Q.** And the kcat/Km?
**A.** 16000 ± 2000 M⁻¹ s⁻¹
